Assay results published in patent US20090263375A1 (WISCONSIN ALUMNI RESEARCH FOUNDATION, published 2009).

T1: Symplekin (human, UniProt Q92797 1-1274)
T1 sequence (looked up): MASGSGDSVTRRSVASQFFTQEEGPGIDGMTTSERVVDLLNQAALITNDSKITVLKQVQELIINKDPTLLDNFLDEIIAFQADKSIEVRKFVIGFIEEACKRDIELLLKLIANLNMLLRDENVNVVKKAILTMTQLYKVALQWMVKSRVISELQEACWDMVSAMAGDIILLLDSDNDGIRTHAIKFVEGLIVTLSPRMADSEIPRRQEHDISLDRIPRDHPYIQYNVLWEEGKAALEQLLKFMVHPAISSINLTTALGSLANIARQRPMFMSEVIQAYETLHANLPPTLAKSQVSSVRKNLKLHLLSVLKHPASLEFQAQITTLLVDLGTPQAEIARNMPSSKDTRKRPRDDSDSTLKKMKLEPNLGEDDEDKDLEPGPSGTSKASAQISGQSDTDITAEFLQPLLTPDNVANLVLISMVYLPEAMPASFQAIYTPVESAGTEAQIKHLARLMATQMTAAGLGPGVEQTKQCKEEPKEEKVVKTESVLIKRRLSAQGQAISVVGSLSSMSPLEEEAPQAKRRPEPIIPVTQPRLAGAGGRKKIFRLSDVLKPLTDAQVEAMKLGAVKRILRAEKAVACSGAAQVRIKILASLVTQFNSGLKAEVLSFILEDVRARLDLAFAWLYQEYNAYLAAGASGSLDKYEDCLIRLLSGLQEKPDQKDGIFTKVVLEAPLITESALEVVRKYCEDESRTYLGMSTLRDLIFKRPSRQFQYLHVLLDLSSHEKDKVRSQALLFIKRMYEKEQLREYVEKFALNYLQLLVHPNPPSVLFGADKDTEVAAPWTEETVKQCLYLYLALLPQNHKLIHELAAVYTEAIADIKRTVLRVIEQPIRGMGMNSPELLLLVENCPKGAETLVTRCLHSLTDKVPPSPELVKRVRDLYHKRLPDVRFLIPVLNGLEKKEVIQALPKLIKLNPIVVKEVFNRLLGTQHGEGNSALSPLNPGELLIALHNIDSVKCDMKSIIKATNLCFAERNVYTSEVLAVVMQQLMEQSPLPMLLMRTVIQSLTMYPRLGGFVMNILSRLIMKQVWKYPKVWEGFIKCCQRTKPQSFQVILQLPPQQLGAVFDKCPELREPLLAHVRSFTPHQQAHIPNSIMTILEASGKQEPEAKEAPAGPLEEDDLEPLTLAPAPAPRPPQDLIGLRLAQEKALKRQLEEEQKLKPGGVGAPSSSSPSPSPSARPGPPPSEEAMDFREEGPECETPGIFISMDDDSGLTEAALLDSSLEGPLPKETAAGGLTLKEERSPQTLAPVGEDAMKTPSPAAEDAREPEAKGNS

B1: Flag-Star-PAP (full length) (enzyme)
chain: MAAVDSDVESLPRGGFRCCLCHVTTANRPSLDAHLGGRKHRHLVELRAARKAQGLRSVFVSGFPRGVDSAQLSEYFLAFGPVASVVMDKDKGVFAIVEMGDVGAREAVLSQSQHSLGGHRLRVRPREQKEFQSPASKSPKGAAPDSHQLAKALAEAADVGAQMIKLVGLRELSEAERQLRSLVVALMQEVFTEFFPGCVVHPFGSSINSFDVHGCDLDLFLDLGDLEEPQPVPKAPESPSLDSALASPLDPQALACTPASPPDSQPPASPQDSEALDFETPSSSLAPQTPDSALASETLASPQSLPPASPLLEDREEGDLGKASELAETPKEEKAEGAAMLELVGSILRGCVPGVYRVQTVPSARRPVVKFCHRPSGLHGDVSLSNRLALHNSRFLSLCSELDGRVRPLVYTLRCWAQGRGLSGSGPLLSNYALTLLVIYFLQTRDPPVLPTVSQLTQKAGEGEQVEVDGWDCSFPRDASRLEPSINVEPLSSLLAQFFSCVSCWDLRGSLLSLREGQALPVAGGLPSNLWEGLRLGPLNLQDPFDLSHNVAANVTSRVAGRLQNCCRAAANYCRSLQYQRRSSRGRDWGLLPLLQPSSPSSLLSATPIPLPLAPFTQLTAALVQVFREALGCHIEQATKRTRSEGGGTGESSQGGTSKRLKVDGQKNCCEEGKEEQQGCAGDGGEDRVEEMVIEVGEMVQDWAMQSPGQPGDLPLTTGKHGAPGEEGQPSHAALAERGPKGHEAAQEWSQGEAGKGASLPSSASWRCALWHRVWQGRRRARRRLQQQTKEGAGGGAGTRAGWLATEAQVTQELKGLSGGEERPETEPLLSFVASVSPADRMLTVTPLQDPQGLFPDLHHFLQVFLPQAIRHLK
notes: Expressed in HEK 293 cells and purified on anti-FLAG M2 resin together with its associated complex; also called Flag tagged Star-PAP; full-length Star-PAP; not shown: FLAG tag
B2: CPSF-100 (Cleavage and Polyadenylation Specificity Factor subunit 100) (other, human, UniProt Q9P2I0 1-782, looked up)
chain: MTSIIKLTTLSGVQEESALCYLLQVDEFRFLLDCGWDEHFSMDIIDSLRKHVHQIDAVLLSHPDPLHLGALPYAVGKLGLNCAIYATIPVYKMGQMFMYDLYQSRHNTEDFTLFTLDDVDAAFDKIQQLKFSQIVNLKGKGHGLSITPLPAGHMIGGTIWKIVKDGEEEIVYAVDFNHKREIHLNGCSLEMLSRPSLLITDSFNATYVQPRRKQRDEQLLTNVLETLRGDGNVLIAVDTAGRVLELAQLLDQIWRTKDAGLGVYSLALLNNVSYNVVEFSKSQVEWMSDKLMRCFEDKRNNPFQFRHLSLCHGLSDLARVPSPKVVLASQPDLECGFSRDLFIQWCQDPKNSIILTYRTTPGTLARFLIDNPSEKITEIELRKRVKLEGKELEEYLEKEKLKKEAAKKLEQSKEADIDSSDESDIEEDIDQPSAHKTKHDLMMKGEGSRKGSFFKQAKKSYPMFPAPEERIKWDEYGEIIKPEDFLVPELQATEEEKSKLESGLTNGDEPMDQDLSDVPTKCISTTESIEIKARVTYIDYEGRSDGDSIKKIINQMKPRQLIIVHGPPEASQDLAECCRAFGGKDIKVYMPKLHETVDATSETHIYQVRLKDSLVSSLQFCKAKDAELAWIDGVLDMRVSKVDTGVILEEGELKDDGEDSEMQVEAPSDSSVIAQQKAMKSLFGDDEKETGEESEIIPTLEPLPPHEVPGHQSVFMNEPRLSDFKQVLLREGIQAEFVGGVLVCNNQVAVRRTETGRIGLEGCLCQDFYRIRDLLYEQYAIV
notes: also called SPSF-100
B3: CPSF-73 (Cleavage and Polyadenylation Specificity Factor subunit 73) (enzyme, human, UniProt Q9UKF6 2-684, looked up)
chain: SAIPAEESDQLLIRPLGAGQEVGRSCIILEFKGRKIMLDCGIHPGLEGMDALPYIDLIDPAEIDLLLISHFHLDHCGALPWFLQKTSFKGRTFMTHATKAIYRWLLSDYVKVSNISADDMLYTETDLEESMDKIETINFHEVKEVAGIKFWCYHAGHVLGAAMFMIEIAGVKLLYTGDFSRQEDRHLMAAEIPNIKPDILIIESTYGTHIHEKREEREARFCNTVHDIVNRGGRGLIPVFALGRAQELLLILDEYWQNHPELHDIPIYYASSLAKKCMAVYQTYVNAMNDKIRKQININNPFVFKHISNLKSMDHFDDIGPSVVMASPGMMQSGLSRELFESWCTDKRNGVIIAGYCVEGTLAKHIMSEPEEITTMSGQKLPLKMSVDYISFSAHTDYQQTSEFIRALKPPHVILVHGEQNEMARLKAALIREYEDNDEVHIEVHNPRNTEAVTLNFRGEKLAKVMGFLADKKPEQGQRVSGILVKRNFNYHILSPCDLSNYTDLAMSTVKQTQAIPYTGPFNLLCYQLQKLTGDVEELEIQEKPALKVFKNITVIQEPGMVVLEWLANPSNDMYADTVTTVILEVQSNPKIRKGAVQKVSKKLEMHVYSKRLEIMLQDIFGEDCVSVKDDSILSVTVDGKTANLNLETRTVECEEGSEDDESLREMVELAAQRLYEALTPVH
notes: also called CSPF-73
B4: CstF-64 (Cleavage-Stimulatory Factor subunit 64) (other, human, UniProt P33240 1-577, looked up)
chain: MAGLTVRDPAVDRSLRSVFVGNIPYEATEEQLKDIFSEVGPVVSFRLVYDRETGKPKGYGFCEYQDQETALSAMRNLNGREFSGRALRVDNAASEKNKEELKSLGTGAPVIESPYGETISPEDAPESISKAVASLPPEQMFELMKQMKLCVQNSPQEARNMLLQNPQLAYALLQAQVVMRIVDPEIALKILHRQTNIPTLIAGNPQPVHGAGPGSGSNVSMNQQNPQAPQAQSLGGMHVNGAPPLMQASMQGGVPAPGQMPAAVTGPGPGSLAPGGGMQAQVGMPGSGPVSMERGQVPMQDPRAAMQRGSLPANVPTPRGLLGDAPNDPRGGTLLSVTGEVEPRGYLGPPHQGPPMHHVPGHESRGPPPHELRGGPLPEPRPLMAEPRGPMLDQRGPPLDGRGGRDPRGIDARGMEARAMEARGLDARGLEARAMEARAMEARAMEARAMEARAMEVRGMEARGMDTRGPVPGPRGPIPSGMQGPSPINMGAVVPQGSRQVPVMQGTGMQGASIQGGSQPGGFSPGQNQVTPQDHEKAALIMQVLQLTADQIAMLPPEQRQSILILKEQIQKSTGAP

Tests used:
Assay in all cases: FLAG affinity purification from HEK 293 cells, western blot
Symplekin = target: T1, Symplekin
Experimental: (§1) Affinity purification of Flag-Star-PAP and Flag-PAPα and their associated complex of proteins in parallel allowed a comparison of the complexes formed by Star-PAP and PAPα in more detail. Flag tagged Star-PAP and PAPα were purified from HEK 293 cells stably expressing Flag-Star-PAP or Flag-PAPα (following manufacturer's instructions; Sigma-Aldrich) and the presence of endogenous symplekin, CPSF¹⁰⁰, CPSF⁷³, CstF⁶⁴, RNA Pol II, Sm protein (Y12) and PIPKIα was assessed by western blotting. Like Flag-PAPα, Flag-Star-PAP associates with symplekin, CPSF¹⁰⁰ and CPSF⁷³, further confirmation that Star-PAP may function in an mRNA polyadenylation complex (FIG. 7). Also detected with both PAPs was a faster migrating form of RNA Pol II and Sm protein (Y-12), a component of the spliceosome, which is consistent with reports that the machinery for splicing and polyadenylation are coupled.

[1] = target: B1
Experimental: as §1

[2] = target: T2, Flag-PAPα (canonical poly(A) polymerase) (Homo sapiens (Human), UniProt P51003 1-745, limits assumed)
T2 construct: not shown: FLAG tag
Experimental: as §1

T2 sequence (P51003 whole entry): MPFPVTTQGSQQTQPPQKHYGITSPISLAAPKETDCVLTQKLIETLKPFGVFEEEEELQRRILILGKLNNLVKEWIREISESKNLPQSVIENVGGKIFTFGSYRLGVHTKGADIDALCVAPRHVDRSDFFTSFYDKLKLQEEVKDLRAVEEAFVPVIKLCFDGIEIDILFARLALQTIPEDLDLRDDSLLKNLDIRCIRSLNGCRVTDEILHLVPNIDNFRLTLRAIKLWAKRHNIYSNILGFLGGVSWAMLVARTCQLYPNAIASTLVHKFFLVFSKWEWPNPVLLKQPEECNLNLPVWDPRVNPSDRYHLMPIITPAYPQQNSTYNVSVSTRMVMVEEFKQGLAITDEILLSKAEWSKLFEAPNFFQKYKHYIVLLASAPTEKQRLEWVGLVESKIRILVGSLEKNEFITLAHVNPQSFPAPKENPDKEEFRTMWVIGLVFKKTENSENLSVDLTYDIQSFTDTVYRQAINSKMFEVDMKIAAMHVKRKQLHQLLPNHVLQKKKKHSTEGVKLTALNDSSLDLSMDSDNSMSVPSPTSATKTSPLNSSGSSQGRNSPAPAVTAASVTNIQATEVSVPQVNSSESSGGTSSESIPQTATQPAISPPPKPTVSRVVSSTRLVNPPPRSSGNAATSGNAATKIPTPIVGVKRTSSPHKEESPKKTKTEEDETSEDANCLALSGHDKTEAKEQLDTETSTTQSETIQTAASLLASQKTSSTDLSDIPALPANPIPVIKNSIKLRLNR

B1
binding result (Symplekin): binds

B2
binding result [1]: binds

B3
binding result [2]: binds | binding result [1]: binds

B4
binding result [2]: no binding | binding result [1]: binds
